Source: patent CN112063765A (BEIJING XINSONG BIOLOGICAL TECH CO LTD, dated 2020)

Tests used:
Assay in all cases: cell-based or functional assay
[1] = target: New Caledonia/20/99(H1N1) (Influenza A virus New Caledonia/20/99 …)
[2] = target: Solomon Islands/3/2006(H1N1) (Influenza A virus Solomon …)
[3] = target: A/swine/Jalisco/12-13/2012(H1N1) (Influenza A virus …)

B1: 3E6单克隆抗体 (antibody, V domains shown)
VH: EVQLEESGTELARPGASVKLALKASGYIFSSYSGQWIKQRPGAGLELIGYPYPGWIDTRYTQKLTGKATLTADKSSSTLYMQLSSLASEDSAVAYCAGSYFSSDAWGLGTTLAVSS
VL: DIVLTQSPALMAASAGEKVTITCAVSQSIQSGYLAWYQQKSGISPKPWIYDTSNQAGGVPARFSGAGSGTSYSLTITSMEAEDAATYYCAQGTTSPLSFGAGTKLELK
[1]
  中和活性 (Lenti-pseudovirus, 293A细胞, β-gal; 抗体浓度 0.01μg/mL): 0.865
[2]
  中和活性 (Lenti-pseudovirus, 293A细胞, β-gal; 抗体浓度 0.01μg/mL): 0.843
[3]
  中和活性 (Lenti-pseudovirus, 293A细胞, β-gal; 抗体浓度 0.01μg/mL): 0.974
